Assay results from patent publication CN114573691A (EIGHT HOSPITALS IN AFFILIATED CITY OF GUANGZHOU MEDICAL; …, dated 2022).

B1: 中和抗体YB13-208 (antibody, V domains shown)
V domain 1: QITLKESGPTLVKPTQTLTLTCTFSGLSLSTSGVSVGWIRQPPGKAPEWLALIYWDDDKRYSPSLTSRLSITKDTSKNQVVLTMTNMDPVDTATYYCAHPRYYGDSSGYYWIWGQGTMVTVSS
V domain 2: SYELTQPPSVSVSPGQTARITCSGDALPKQYAYWYQQKPGQAPVVVMYKTSERPSGIPERFSGSSSGTTVTLTISGVQAEDEADYYCQSADSSGFYVFGTGTQVTVL
B2: 中和抗体YB9-258 (antibody, V domains shown)
VH: EVQLVESGGGLIQPGGSLRLSCAASGLTVSSNYMHWVRQAPGKGLEWVSVLYAGGSAFYADSVKGRFTISRNNSKNTLYLQMNSLRAEDTAIYYCARGLGDYLDSWGQGTLVTVSS
VL: DIQMTQSPSSVSASVGDRVTITCRASQGIGSWLAWYQQKPGKAPQLLIYAASTLQSGVPPRFSGSGSGTDFTLTITSLQPEDFASYYCQQANSVLALTFGGGTKVEIK

Columns and labels:
[1] = target: T1, 新冠病毒SARS-CoV-2变异毒株Omicron(B.1.1.529)S1抗原 (SARS-CoV-2, UniProt P0DTC2 16-685); assay: SPR (Biacore T200), S1 antigen coupled to CM5 chip, antibody as analyte
T1 construct: domain: S1; also called Omicron S1; Omicron(B.1.1.529)的S1蛋白

[2] = target: T2, 新冠病毒SARS-CoV-2变异毒株Delta(B.1.617.2)S1抗原 (SARS-CoV-2, UniProt P0DTC2 16-685); assay: as above
T2 construct: domain: S1; also called Delta S1

Binder	Kd [1] [nM]	Kd [2] [nM]
B1	3.11	0.639
B2	0.00417	0.833
